Data reported in article PMC6778029.

Key:
hnRNPG wild-type [1] = target: T1, hnRNPG wild-type (Homo sapiens, UniProt P38159 1-391); assay: limited proteolysis protection
hnRNPG RRMmut = hnRNPG RRMmut (Homo sapiens, UniProt P38159 1-391, K9A;F11A;R49A;F51A;F53A); assay: limited proteolysis protection
hnRNPG wild-type [2] = target: T1, hnRNPG wild-type; assay: spin-down

hnRNPG RRMmut, sequence (P38159 whole entry K9A/F11A/R49A/F51A/F53A): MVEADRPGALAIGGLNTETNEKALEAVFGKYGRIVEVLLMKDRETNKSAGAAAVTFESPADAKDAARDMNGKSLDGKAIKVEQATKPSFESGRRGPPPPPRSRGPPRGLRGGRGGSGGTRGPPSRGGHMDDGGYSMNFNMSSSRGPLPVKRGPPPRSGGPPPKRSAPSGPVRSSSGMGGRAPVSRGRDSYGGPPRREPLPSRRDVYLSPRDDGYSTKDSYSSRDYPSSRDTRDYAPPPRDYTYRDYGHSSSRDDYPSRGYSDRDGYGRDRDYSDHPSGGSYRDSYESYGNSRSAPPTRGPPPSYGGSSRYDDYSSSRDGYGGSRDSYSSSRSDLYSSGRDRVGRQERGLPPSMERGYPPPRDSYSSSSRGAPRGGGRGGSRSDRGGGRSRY
T1 sequence (P38159 whole entry): as the sequence (P38159 whole entry K9A/F11A/R49A/F51A/F53A) above, with A9K, A11F, A49R, A51F, A53F counted along it

B1: SMN2exon7 RNA (ssRNA)
RNA: GGUUUUAGACAAAAUCAAAAAGAAGGAAGGUGCUCACAUUCCUUAAAUUAAGGA
binding result (hnRNPG wild-type [1]): binds
binding result (hnRNPG RRMmut): no binding

AAUGUGAAGGACUUUCGUAACGGAAGUAAUUCAA (structured_RNA) [MALAT1 hairpin 2515-A]
binding result (hnRNPG wild-type [2]): binds
binding result (hnRNPG RRMmut): no binding

AAUGUGAAGGACUUUCGUAACGGAAGUAAUUCAA (structured_RNA, m6A at position 11) [MALAT1 hairpin 2515-m6A]
binding result (hnRNPG wild-type [2]): binds
binding result (hnRNPG RRMmut): no binding

GGGUACGACGGAUAUCGUGGGGGGGGAAAUUGCUUUCGGUUCCGACUCUG (structured_RNA) [WEc RNA]
binding result (hnRNPG wild-type [1]): binds
binding result (hnRNPG RRMmut): no binding
